The text below walks through data of publication PMC12804074.

The target in experiment [1] is FDX2ALC (ferredoxin-2 labelled with ALC 480) (human) (UniProt Q6P4F2). Briefly: flow-induced dispersion analysis.
Experiment [2] addresses FXNALC (frataxin labelled with ALC 480) (human) (UniProt Q16595). Briefly: flow-induced dispersion analysis.
For experiment [3], the target named is cysteine desulfurase complex (NFS1–ISD11–ACP)2 (human) (UniProt Q9HD34). Description: ITC.
Experiment [4] concerns the target (NFS1–ISD11–ACP–ISCU2)2 complex (human) (UniProt Q9HD34). Briefly: ITC. Background: ITC needs no label: the signal is the heat of the interaction.

ferredoxin-2 (FDX2), wild type, sequence (Q6P4F2 53-183): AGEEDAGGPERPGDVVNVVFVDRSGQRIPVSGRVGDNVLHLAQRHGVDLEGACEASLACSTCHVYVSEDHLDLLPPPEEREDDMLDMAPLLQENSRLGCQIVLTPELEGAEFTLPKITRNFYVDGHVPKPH
FDX2ALC (ferredoxin-2 labelled with ALC 480) (human), sequence (Q6P4F2 53-183): as above

In general, Kd refers to the equilibrium constant for the complex coming apart. Read a high Kd as weaker binding. With “(NFS1–ISD11–ACP–ISCU2)2 complex (from UniProt Q9HD34 1-91; O14561 69-156; Q9H1K1-1 35-167)”, the Kd came to 16000 nM in experiment [1] and 102 nM in experiment [2]. “FDX2 D179A (from UniProt Q6P4F2 53-183) (natural protein)” displayed a Kd in experiment [3] of 39 nM. In turn, “ferredoxin-2 (FDX2), wild type (from UniProt Q6P4F2 53-183) (natural protein)” returned a KD of the tight-binding exothermic mode in experiment [4] of 102 nM. For “frataxin (FXN) (from UniProt Q16595 42-210) (natural protein)”, the Kd in experiment [4] was 146 nM.
